These results are taken from publication PMC8762078, “An ALS-associated variant of the autophagy receptor SQSTM1/p62 reprograms binding selectivity toward the autophagy-related hATG8 proteins” (The Journal of Biological Chemistry, 2021).

This test addresses p62 WT-AIM peptide (human). The experiment in a line: native MS; ESI-MS competition binding under nondenaturing conditions: each hATG8 titrated into an equimolar mixture of WT-AIM and L341V-AIM peptides (each 10 μM); read-out is the ratio of peak intensities of unbound WT and L341V peptides; ratios given for 20 μM hATG8; two independent experiments.

Sequence of GABARAPL1 (Q9H0R8 whole entry): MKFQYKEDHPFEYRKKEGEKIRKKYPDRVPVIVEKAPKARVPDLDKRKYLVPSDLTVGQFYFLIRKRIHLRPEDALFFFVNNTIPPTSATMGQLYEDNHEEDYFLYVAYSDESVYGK

As to “GABARAPL1 (from UniProt Q9H0R8 1-117) (natural protein)”, the ratio of unbound WT:L341V AIM peptides at 20 μM hATG8 (reference: L341V-AIM) was found to be 0.5.
